Residue numbers refer to the chain shown, from its start.
B1: antibody 34 (antibody, V domains shown)
VH: QVTLKESGPGILQPSQTLSLTCSFSGFSLSTFSLGVGWIRQSSGKGLEWLAHIWWDDEKYYNPALKSRLTISKDTSKNQVFLKIANVDAADTATYYCARAYYSKSYYALDYWGQGTSVTVSS
VL: DIQMTQSPSSLSASLGERVSLTCRASQEISGYLSWLQQKPDGTIKRLIYAASTLDSGVPKRFSGSRSGSDYSLAISSLESEDFADYYCLQYANFPFTFGSGTKLEIK
notes: mouse IgG, kappa light chain; also called clone #34; purified antibody 34
B2: antibody 16 (antibody, V domains shown)
VH: QVTLKESGPGILQPSQTLSLTCSFSGFSLSTFALGVGWIRQPSGRGLEWLAHIWWDDDKYYNPALKSRLTISKDTSKNHVFLKIANVDTADTATYYCARITTYYYGMDYWGQGTSVTVSS
VL: DIVLSQSPATLSVTPGDSVSLFCRASQSIGNHLHWYQQESHASPRLLIKYASQSISGIPSRFSGSGSGTDFTLSINSVETEDFGMYFCQQSYNWPLTFGAGTKLELK
notes: mouse IgG, kappa light chain; also called clone #16; purified antibody 16
B3: antibody 3 (antibody, V domains shown)
VH: QVTLKESGPGILQPSQTLSLTCSFSGFSLTTFAMGIGWVRQPSGKGLEWLAHIWWDGEKYNNPVLKSRLTISKDTSKNQVFLRIANVDTPDTATYYCARISSIYYIIDNWGQGTSVTVSS
VL: B2 VL with S5T, D17H, F22S, G30S, H32N, Q38K, E39K, A42E, A51V
notes: mouse IgG, kappa light chain; also called clone #3; purified antibody 3
B4: antibody 5 (antibody, V domains shown)
VH: QVTLKESGPGILQPSQTLSLTCSFSGFSLSTFGMGVGWIRQPSGKGLEWLAHIWWDDEKYYNSALKSRLTISKATSKNQAFLKIANVDTADTATYYCARISNYGSNYWYFNVWGTGTTVTVSS
VL: QVVLTQSPALMSASPGEKVTMTCSAGSSVSCMYWYQQKPGSSPRVLIYDTSNLASGVPARFTGSGSGTSYSLTISRMEAEDAASYYCQQWNSYPLTFGAGTKLELK
notes: mouse IgG, kappa light chain; also called clone #5; purified antibody 5
B5: antibody 43 (antibody, V domains shown)
VH: B4 VH with T3A, P42S, H52N, E58D, S63P, A74D, T75A, S101G, N111D
VL: QIVLTQSPAIMSASPGERVTMTCSANSRISYMYWYQQKPGSSPRLLIYDTSNLASGVPVRFSGSGSGTSYSLTISRMEAEDAATYNCQQWSSYPLTFGAGTKLELK
notes: mouse IgG, kappa light chain; also called clone #43; purified antibody 43
B6: antibody 42 (antibody, V domains shown)
VH: B4 VH with F24L, M34R, S63P, A74D, A80V, K83R, S101Q, N111D
VL: B5 VL with Q1L, R18K, S24G, N26T, Y33F, L45V, M77V, A82V, N86Y, S91N
notes: mouse IgG, kappa light chain; also called clone #42; purified antibody 42
B7: antibody 44 (antibody, V domains shown)
VH: B4 VH with G44E, E58D, S63P, A74D, A80I, A85T, D91E, A98S, S101G, N111D
VL: QIVLTQSPAVMSASPGEKVTMTCTASSSVYYMYWYQQTPGSSPRLLIYDTSNLASGVPVRFSGSGSGTSYSLTISRMEAEDAATYYCQQWNTYPLTFGAGTKLELK
notes: mouse IgG, kappa light chain; also called clone #44; purified antibody 44
B8: antibody 22 (antibody, V domains shown)
VH: B4 VH with A80V
VL: B4 VL with C31Y, S84T
notes: mouse IgG, kappa light chain; also called clone #22; purified antibody 22
B9: antibody 48 (antibody, V domains shown)
VH: QVQLQQSGTELVRPGTSVKVSCKASGYAFTNYLIEWVKQRPGQGLEWIGVINPGSGFTKYNEKFKGKATLTADKSSSTVYMHLSSLTSEDSAVYFCARGLYRAMDYWGQGTSVTVSS
VL: DIQMTQSPASQSASLGESVTITCLASQTIATWLAWYQQKPGKSPQLLIYGATTLADGVPSRFSGGGSGTKFSFKISSLQAEDFVSYYCQQLYSTPYTFGGGTKLEIK
notes: mouse IgG, kappa light chain; also called clone #48; purified antibody 48
B10: antibody 50 (antibody, V domains shown)
VH: B9 VH with T9A, T16A, T30S, V79A, H82Q
VL: B9 VL with A30G, G50A, T52A, T53S, S85N, L91I
notes: mouse IgG, kappa light chain; also called clone #50; purified antibody 50

Molecular target: T1, hiR1-FL-WT-T7 (human, UniProt Q96CC6 1-855)
T1 construct: on MEF-DKO cells
T1 sequence: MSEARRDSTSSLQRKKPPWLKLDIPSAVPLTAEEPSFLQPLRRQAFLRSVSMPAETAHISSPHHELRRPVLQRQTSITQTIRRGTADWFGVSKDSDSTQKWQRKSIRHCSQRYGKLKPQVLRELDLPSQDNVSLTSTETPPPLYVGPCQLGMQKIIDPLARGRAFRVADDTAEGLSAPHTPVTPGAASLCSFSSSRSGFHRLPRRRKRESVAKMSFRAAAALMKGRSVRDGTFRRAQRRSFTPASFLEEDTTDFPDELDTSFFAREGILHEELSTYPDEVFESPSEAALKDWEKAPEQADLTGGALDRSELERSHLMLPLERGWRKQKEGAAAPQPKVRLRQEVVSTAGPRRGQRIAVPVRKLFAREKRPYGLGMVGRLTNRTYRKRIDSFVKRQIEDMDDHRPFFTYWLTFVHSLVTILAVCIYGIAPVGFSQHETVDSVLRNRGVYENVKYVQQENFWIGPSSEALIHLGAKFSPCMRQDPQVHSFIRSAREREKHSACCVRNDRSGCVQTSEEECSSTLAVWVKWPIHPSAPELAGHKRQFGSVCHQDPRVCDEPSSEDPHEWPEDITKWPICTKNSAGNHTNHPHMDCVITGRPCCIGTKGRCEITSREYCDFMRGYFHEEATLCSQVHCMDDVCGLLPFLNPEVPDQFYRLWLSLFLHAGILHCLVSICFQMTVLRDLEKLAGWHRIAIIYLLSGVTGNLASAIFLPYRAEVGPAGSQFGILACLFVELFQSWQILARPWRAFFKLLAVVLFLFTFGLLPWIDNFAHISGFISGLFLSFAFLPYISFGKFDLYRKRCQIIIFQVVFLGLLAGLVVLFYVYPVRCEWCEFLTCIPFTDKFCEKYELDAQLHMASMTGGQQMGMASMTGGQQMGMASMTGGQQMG
Experiment: FACS, MEF-DKO cells, 3 µg/ml

Row | Binder | loss of binding vs wild type
1 | B1 | ≥ 95%
2 | B2 | ≥ 95%
3 | B3 | ≥ 95%
4 | B4 | ≥ 95%
5 | B5 | ≥ 95%
6 | B6 | ≥ 95%
7 | B7 | ≥ 95%
8 | B8 | ≥ 95%
9 | B9 | ≥ 60%
10 | B10 | ≥ 95%

Molecular target: T2, hiR2-FL-S537E-T7 (human, UniProt Q6PJF5 1-856)
T2 sequence: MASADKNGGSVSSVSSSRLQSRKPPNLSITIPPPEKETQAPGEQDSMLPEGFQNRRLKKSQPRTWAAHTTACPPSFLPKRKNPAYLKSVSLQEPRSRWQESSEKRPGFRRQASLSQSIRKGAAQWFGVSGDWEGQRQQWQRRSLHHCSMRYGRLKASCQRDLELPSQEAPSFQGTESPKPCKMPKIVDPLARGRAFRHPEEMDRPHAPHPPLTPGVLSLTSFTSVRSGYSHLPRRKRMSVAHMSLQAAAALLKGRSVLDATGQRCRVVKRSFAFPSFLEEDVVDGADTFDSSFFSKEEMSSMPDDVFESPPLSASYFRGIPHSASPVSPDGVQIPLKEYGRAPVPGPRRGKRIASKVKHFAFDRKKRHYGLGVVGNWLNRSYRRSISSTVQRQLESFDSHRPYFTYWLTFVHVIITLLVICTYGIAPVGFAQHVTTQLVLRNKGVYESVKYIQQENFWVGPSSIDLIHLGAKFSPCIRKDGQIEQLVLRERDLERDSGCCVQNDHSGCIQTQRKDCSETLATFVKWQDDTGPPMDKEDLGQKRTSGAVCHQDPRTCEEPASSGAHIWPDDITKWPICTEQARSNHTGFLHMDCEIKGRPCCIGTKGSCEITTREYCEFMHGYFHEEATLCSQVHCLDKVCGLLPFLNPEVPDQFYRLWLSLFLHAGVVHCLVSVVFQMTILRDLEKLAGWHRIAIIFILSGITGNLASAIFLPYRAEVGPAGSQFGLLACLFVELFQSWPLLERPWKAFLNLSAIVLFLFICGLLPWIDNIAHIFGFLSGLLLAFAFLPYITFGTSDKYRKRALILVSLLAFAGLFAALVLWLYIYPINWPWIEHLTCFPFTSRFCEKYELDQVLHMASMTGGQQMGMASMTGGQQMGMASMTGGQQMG
Experiment: FACS, MEF-DKO cells, 3 µg/ml

Row | Binder | loss of binding vs wild type
11 | B1 | ≥ 95%
12 | B4 | ≥ 95%
13 | B5 | ≥ 60%
14 | B6 | ≥ 60%
15 | B7 | ≥ 60%
16 | B8 | ≥ 60%
